Assay results as given in US20200256877A1, “Microbiota Sequence Variants Of Tumor-Related Antigenic Epitopes” (ENTEROME S.A., priority 2017, published 2020).

Key:
[1] = tested on: splenocytes (IFNγ secretion); experiment: ELISPOT-IFNγ on splenocytes of HHD DR3 and HHD DR1 mice vaccinated with IL13RA2-BL (Example 15); assay type: in vivo, mouse
Method: Mice were immunized with a specific vaccination peptide (vacc-pAg) combined to a common helper peptide (h-pAg).
The peptides were provided as follows: • vacc-pAg: IL13RA2-BL; all produced and provided at a 4 mg/ml (4 mM) concentration; • h-pAg: HHD-DR3 peptide (SEQ ID NO: 32); for immunization of β/A2/DR3 HHDDR3 mice provided at a 4 mg/ml (4 mM) concentration • h-pAg: UCP2 peptide (SEQ ID NO: 159); for immunization of β/A2/DR1 HHDDR1 mice provided at a 4 mg/ml (4 mM) concentration
The animals were immunized on day 0 (d0) with a prime injection, and on d14 with a boost injection. Each mouse was injected s.c. at tail base with 100 μL of an oil-based emulsion that contained: • 100 μg of vacc-pAg (25 μL of 4 mg/mL stock per mouse); • 150 μg of h-pAg (15 μL of 10 mg/mL stock per mouse); • 10 μL of PBS to reach a total volume of 50 μL (per mouse); • Incomplete Freund's Adjuvant (IFA) added at 1:1 (v:v) ratio (50 μL per mouse).
Seven days after the boost injection (i.e. on d21), the animals were euthanized and the spleen was harvested. Splenocytes were prepared by mechanical disruption of the organ followed by 70 μm-filtering and Ficoll density gradient purification.
The splenocytes were immediately used in an ELISPOT-IFNγ assay (Table 21). […]
(§1) Spots were counted on a Grand ImmunoSpot® S6 Ultimate UV Image Analyzer interfaced to the ImmunoSpot 5.4 software (CTL-Europe). […]

HLA-A*0201 = biological target: T1, HLA-A*0201 (Homo sapiens, UniProt P04439, D140Y/D185E/D98H/E176V/E277Q/G131W/G231S/I119V/I121R/I166T/I218V/L300P/L318F/N151K/N90K/P208A/P217A/Q86G/Q94H/R138H/R169H/T345S); experiment: In vitro affinity of peptides to HLA-A*0201 on T2 cell line (FACS, anti-HLA-A2 labeling); assay type: cell-based; settings: T2 cells; for Binding to HLA-A*0201 (in words): in vitro; for Mean fluorescence intensity: 16 hours
T1 construct: human tumoral cell T2 which expresses the HLA-A*0201 molecule; endogenous in cells; host or cells: T2 cells (human, TAP1/2 negative)
Text: A method for in vitro testing is well-known to the skilled person. For example, the skilled person may use the experimental protocol as validated for peptides presented by HLA-A*0201 in Tourdot et al., A general strategy to enhance immunogenicity of low-affinity HLA-A2.1-associated peptides: implication in the identification of cryptic tumor epitopes. Eur J Immunol. 2000 December; 30(12):3411-21. In this context, a reference peptide, such as HIV pol 589-597, may be additionally used in the test. This enables calculation of the in vitro affinity relative to the binding observed with the reference peptide, e.g. by the following equation:
Relative affinity=concentration of each peptide inducing 20% of expression of HLA-A*0201/concentration of the reference peptide inducing 20% of expression of HLA-A*0201
(where 100% is the level of HLA-A*0201 expression detected with the reference peptide, e.g. HIV pol 589-597, for example used at a 100 μM concentration).
The experimental protocol is similar to the one that was validated for peptides presented by the HLA-A*0201 (Tourdot et al., A general strategy to enhance immunogenicity of low-affinity HLA-A2.1-associated peptides: implication in the identification of cryptic tumor epitopes. Eur J Immunol. 2000 December; 30(12):3411-21). Affinity measurement of the peptides is achieved with the human tumoral cell T2 which expresses the HLA-A*0201 molecule, but which is TAP1/2 negative and incapable of presenting endogenous peptides.
T2 cells (2.10^5 cells per well) were incubated with decreasing concentrations of peptides from 100 μM to 0.1 μM in a AIMV medium supplemented with 100 ng/μl of human β2m at 37° C. for 16 hours. Cells were then washed two times and marked with the anti-HLA-A2 antibody coupled to PE (clone BB7.2, BD Pharmagen).
The analysis was performed by FACS (Guava Easy Cyte). For each peptide concentration, the geometric mean of the labeling associated with the peptide of interest was subtracted from background noise and reported as a percentage of the geometric mean of the […] labeling obtained for the reference peptide HIV pol 589-597 at a concentration of 100 μM. The relative affinity is then determined as follows:
relative affinity=concentration of each peptide inducing 20% of expression of HLA-A*0201/concentration of the reference peptide inducing 20% of expression of HLA-A*0201.
The experimental protocol, materials and methods correspond to those outlined in Example 4, with the only difference that the above mentioned antigenic peptides were used.
T2 cells (2.10^5 cells per well) were incubated with decreasing concentrations of peptides from 100 μM to 0.1 μM in a AIMV medium supplemented with 100 ng/μl of human β2 m at 37° C. for 16 hours. Cells were then washed two times and marked with the anti-HLA-A2 antibody coupled to PE (clone BB7.2, BD Pharmagen).

[2] = tested on: splenocytes (IFNγ secretion); experiment: ELISPOT-IFNγ on splenocytes of β/A2/DR3 mice vaccinated with FOXM1-B2 (Example 12); assay type: in vivo, mouse
Method: Briefly, 15 β/A2/DR3 mice were immunized with a specific vaccination peptide (vacc-pAg) combined to a common helper peptide (h-pAg) (as outlined in Table 14 below). The vacc-pAg were compared in couples (group 1 vs. group 2). Thereby, both native and optimized versions of a single peptide were compared in each wave.
The animals were immunized on day 0 (d0) with a prime injection, and on d14 with a boost injection. Each mouse was injected s.c. at tail base with 100 μL of an oil-based emulsion that contained:
100 μg of vacc-pAg (25 μL of 4 mg/mL stock per mouse);
150 μg of h-pAg (15 μL of 10 mg/mL stock per mouse);
10 μL of PBS to reach a total volume of 50 μL (per mouse);
Incomplete Freund's Adjuvant (IFA) added at 1:1 (v:v) ratio (50 μL per mouse).
Seven days after the boost injection (i.e., on d21), the animals were euthanized and the spleen was harvested. Splenocytes were prepared by mechanical disruption of the organ followed by 70 μm-filtering and Ficoll density gradient purification.
The splenocytes were immediately used in an ELISPOT-IFNγ assay (Table 15). […]
as §1

Row | Sequence | Response of splenocytes, ELISPOT-IFNγ (in words) ([1]; HHD DR3 and HHD DR1 mice immunized with IL13RA2-BL + helper + IFA, stimulation with IL13RA2-BL) | Immune response against human peptide IL13RA2-HL (in words) ([1]; mice immunized with IL13RA2-BL, stimulation with human peptide) | Binding to HLA-A*0201 (in words) (HLA-A*0201) | % of maximum HIV pol 589-597 binding activity (HLA-A*0201; peptide at 6.25 μM) [%] | % of maximum HIV pol 589-597 binding activity (HLA-A*0201; peptide at 25 μM) [%] | % of maximum HIV pol 589-597 binding activity (HLA-A*0201; peptide at 100 μM) [%] | Concentration inducing 20% of expression of the HLA-A*0201 (HLA-A*0201) [µM] | Mean fluorescence intensity (HLA-A*0201; peptide at 3 μM) | Mean fluorescence intensity (HLA-A*0201; peptide at 25 μM) | Mean fluorescence intensity (HLA-A*0201; peptide at 100 μM) | T cell responses in the ELISPOT-IFNγ assay (in words) ([2]; β/A2/DR3 mice vaccinated with FOXM1-B2 (100 μg) + HHD-DR3 + IFA, d0 and d14) | Activation of T cells after ex vivo re-stimulation with human FOXM1-H2 (in words) ([2]; β/A2/DR3 mice vaccinated with FOXM1-B2, re-stimulation FOXM1-H2 10 μM)
1 | FLPFGFILPV (Sequence variant) [SEQ ID NO: 139] | strong response of splenocytes | effective immune response | strong binding affinity | 43 | 96 | 69 |  |  |  |  |  | 
2 | LMDLSTTEV (Sequence variant) [SEQ ID NO: 75] |  |  | bind |  |  |  | 6.7 | 12.7 | 98.2 | 105 | induced strong T cell responses | efficient activation of T cells could be observed
